Assay results published in patent publication US20190376046.

Assays:
[1] = target: T1, Fructose-bisphosphate aldolase A (encoded by ALDOA) (UniProt P04075)
T1 sequence: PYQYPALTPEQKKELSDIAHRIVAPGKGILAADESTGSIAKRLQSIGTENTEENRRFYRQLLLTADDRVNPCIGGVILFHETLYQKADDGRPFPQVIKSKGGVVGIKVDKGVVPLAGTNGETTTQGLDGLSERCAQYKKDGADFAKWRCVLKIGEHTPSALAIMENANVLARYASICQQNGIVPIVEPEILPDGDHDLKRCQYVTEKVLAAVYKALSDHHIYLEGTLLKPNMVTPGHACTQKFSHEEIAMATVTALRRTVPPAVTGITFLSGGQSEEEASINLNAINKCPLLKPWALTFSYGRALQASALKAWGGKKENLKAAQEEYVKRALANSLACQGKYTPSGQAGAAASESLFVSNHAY

[2] = target: Alpha-enolase (encoded by ENO1) (UniProt P06733)
Sequence of Alpha-enolase (encoded by ENO1) (P06733 2-434): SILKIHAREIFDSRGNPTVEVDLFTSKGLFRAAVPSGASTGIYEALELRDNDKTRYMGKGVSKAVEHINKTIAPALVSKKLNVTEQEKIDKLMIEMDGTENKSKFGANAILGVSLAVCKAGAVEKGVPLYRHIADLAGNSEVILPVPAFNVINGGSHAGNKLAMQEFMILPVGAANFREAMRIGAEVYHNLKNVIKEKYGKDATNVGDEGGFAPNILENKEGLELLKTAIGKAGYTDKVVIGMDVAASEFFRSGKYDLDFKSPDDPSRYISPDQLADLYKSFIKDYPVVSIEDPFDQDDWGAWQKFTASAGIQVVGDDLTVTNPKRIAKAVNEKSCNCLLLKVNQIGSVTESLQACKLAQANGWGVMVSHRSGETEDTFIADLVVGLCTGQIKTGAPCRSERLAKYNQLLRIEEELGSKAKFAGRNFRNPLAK

[3] = target: T2, Phosphoglycerate kinase 1 (encoded by PGK1) (UniProt P00558)
T2 sequence: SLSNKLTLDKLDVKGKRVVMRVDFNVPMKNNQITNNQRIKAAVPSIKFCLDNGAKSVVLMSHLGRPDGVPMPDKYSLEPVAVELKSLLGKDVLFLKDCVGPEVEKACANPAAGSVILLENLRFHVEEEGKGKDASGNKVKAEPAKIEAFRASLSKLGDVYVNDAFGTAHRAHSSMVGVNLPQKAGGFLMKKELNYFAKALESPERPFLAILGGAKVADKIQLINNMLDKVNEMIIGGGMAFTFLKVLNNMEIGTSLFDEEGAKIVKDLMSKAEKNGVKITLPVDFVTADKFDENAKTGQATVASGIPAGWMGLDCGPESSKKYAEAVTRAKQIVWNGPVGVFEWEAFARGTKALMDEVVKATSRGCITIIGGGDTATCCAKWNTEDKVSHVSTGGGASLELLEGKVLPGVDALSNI

[4] = target: Glyceraldehyde-3-phosphate dehydrogenase (encoded by GAPDH) (UniProt P04406)
Sequence of Glyceraldehyde-3-phosphate dehydrogenase (encoded by GAPDH) (P04406 2-335): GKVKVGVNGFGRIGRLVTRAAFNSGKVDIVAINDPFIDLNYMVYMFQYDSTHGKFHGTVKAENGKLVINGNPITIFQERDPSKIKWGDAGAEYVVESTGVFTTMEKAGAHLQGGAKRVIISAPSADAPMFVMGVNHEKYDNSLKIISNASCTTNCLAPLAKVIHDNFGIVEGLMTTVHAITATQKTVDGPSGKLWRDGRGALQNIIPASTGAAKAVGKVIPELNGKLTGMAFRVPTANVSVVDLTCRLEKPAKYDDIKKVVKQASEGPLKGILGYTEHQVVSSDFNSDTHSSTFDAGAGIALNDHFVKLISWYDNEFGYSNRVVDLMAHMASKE

## Sirtuin 2 (SIRT2), human
[1]
  acetylation level (IP with specific antibody, western blot with anti-acetyl-Lys, and the reverse): forced expression of SIRT2 in hESCs prominently deacetylated all four enzymes tested (aldolase, PGK1, enolase, and GAPDH)
  acetylation level after SIRT2 knockdown in hDFs (IP, western blot with anti-acetyl-Lys): Acetylation levels of aldolase, enolase, PGK1 and GAPDH were substantially increased in SIRT2 KD fibroblasts
[2]
  acetylation level (IP with specific antibody, western blot with anti-acetyl-Lys, and the reverse): forced expression of SIRT2 in hESCs prominently deacetylated all four enzymes tested (aldolase, PGK1, enolase, and GAPDH)
  acetylation level after SIRT2 knockdown in hDFs (IP, western blot with anti-acetyl-Lys): Acetylation levels of aldolase, enolase, PGK1 and GAPDH were substantially increased in SIRT2 KD fibroblasts
[3]
  acetylation level (IP with specific antibody, western blot with anti-acetyl-Lys, and the reverse): forced expression of SIRT2 in hESCs prominently deacetylated all four enzymes tested (aldolase, PGK1, enolase, and GAPDH)
  acetylation level after SIRT2 knockdown in hDFs (IP, western blot with anti-acetyl-Lys): Acetylation levels of aldolase, enolase, PGK1 and GAPDH were substantially increased in SIRT2 KD fibroblasts
[4]
  acetylation level (IP with specific antibody, western blot with anti-acetyl-Lys, and the reverse): forced expression of SIRT2 in hESCs prominently deacetylated all four enzymes tested (aldolase, PGK1, enolase, and GAPDH)
  acetylation level after SIRT2 knockdown in hDFs (IP, western blot with anti-acetyl-Lys): Acetylation levels of aldolase, enolase, PGK1 and GAPDH were substantially increased in SIRT2 KD fibroblasts
